Results reported in the RNAGym collection of RNA variant scans (doi:10.1093/molbev/msab373).

B1: Azoarcus group I ribozyme (parent)
chain: GUGCCUUGCGCCGGGAAACCACGCAAGGGAUGGUGUCAAAUUCGGCGAAACCUAAGCGCCCGCCCGGGCGUAUGGCAACGCCGAGCCAAGCUUCGGCGCCUGCGCCGAUGAAGGUGUAGAGACUAGACGGCACCCACCUAAGGCAAACGCUAUGGUGAAGGCAUAGUCCAGGGAGUGGCGAAAGUCACACAAACCGG

Variants of: B1
Experiment: reverse-splicing fitness (ratio to wild type); higher = more active; in vitro selection; Mg2+ level not given
Procedure, shortened: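 An in vitro group I ribozyme library with randomized positions was T7-transcribed and gel-purified. In triplicate, 10 pmol RNA in EPPS pH 7.5 was reacted with 50 pmoles of a 30-nt RNA substrate for 1 h at 37 °C across several added MgCl2 levels (1–48 mM), then stopped with EDTA. Products were reverse transcribed from a substrate-complementary primer, PCR-amplified and sequenced (HiSeq 4000). Fitness is a variant's read proportion after selection over that before, normalised to wild type.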

| Variant | reverse-splicing fitness |
| --- | --- |
| C82G A111G A120U C150A C169G U176C | 0.00399 |
| C82G A111G A120U C150U C169A U176A | 0.00519 |
| C82G A111G A120U C150U C169A U176C | 0.00376 |
| C82G A111G A120U C150U C169A U176G | 0.00204 |
| C82G A111G A120U A145U C150A | 0.00764 |
| C82G A111G A120U A145U C150U | 0.04 |
| C82G A111G A120U A145U C150G | 0.00894 |
| C82G A111G A120U A145U C150G C169U U176G | 0.00239 |
| C82G A111G A120U A145U C150G C169U U176C | 0.00309 |
| C82G A111G A120U A145U C150G C169U U176A | 0.00283 |
| C82G A111G A120U A145G C150U C169A U176G | 0.00254 |
| C82G A111G A120U A145G C150U C169A U176A | 0.00839 |
| C82G A111G A120U A145G C150U C169A U176C | 0.00519 |
| C82G A111G A145C U176C | 0.258 |
| C82G A111G A145C U176A | 0.267 |
| C82G A111G A145C U176G | 0.116 |
| C82G A111G A120U C150A C169U | 0.00399 |
| C82G A111G A120U C150A C169G | 0.00433 |
| C82G A111G A120U C150A C169A | 0.00558 |
| C82G A111G A120U A145G C150U U176A | 0.0125 |
| C82G A111G A120U A145G C150U U176C | 0.0196 |

| Variant | reverse-splicing fitness |
| --- | --- |
| C82G A111G A120U A145G C150U U176G | 0.00429 |
| C82G A111G A145G C150A | 0.0499 |
| C82G A111G A120U C169A | 0.00418 |
| C82G A111G A120U C169U | 0.00572 |
| C82G A111G A120U C169G | 0.00481 |
| C82G A111G A120U A145U C150A C169G U176C | 0.00301 |
| C82G A111G A120U A145U C150A C169G U176A | 0.00229 |
| C82G A111G A120U A145U C150A C169G U176G | 0.00181 |
| C82G A111G A120U A145U C150A U176G | 0.00244 |
| C82G A111G A120U A145U C150A U176A | 0.00578 |
| C82G A111G A120U A145U C150A U176C | 0.00553 |
| C82G A111G A120U A145G C150A C169U U176G | 0.00259 |
| C82G A111G A120U A145G C150A C169U U176A | 0.00563 |
| C82G A111G A120U A145G C150A C169U U176C | 0.00452 |
| C82G A111G A120U A145U C150U U176G | 0.00444 |
| C82G A111G A120U A145U C150U U176A | 0.0117 |
| C82G A111G A120U A145U C150U U176C | 0.0184 |
| C82G A111G A120U A145G C150U C169G U176C | 0.00595 |
| C82G A111G A120U A145G C150U C169G U176G | 0.00241 |
| C82G A111G A120U A145G C150U C169G U176A | 0.0105 |
| C82G A111G A120U A145C C150A U176A | 0.00245 |

| Variant | reverse-splicing fitness |
| --- | --- |
| C82G A111G A120U A145C C150A U176G | 0.00169 |
| C82G A111G A120U A145C C150A U176C | 0.00344 |
| C82G A111G A120U A145G C150G C169G U176A | 0.00894 |
| C82G A111G A120U A145G C150G C169G U176C | 0.00607 |
| C82G A111G A120U A145G C150G C169G U176G | 0.00372 |
| C82G A111G A120U A145U C169U | 0.00451 |
| C82G A111G A120U A145U C169G | 0.00363 |
| C82G A111G A120U A145U C169A | 0.00239 |
| C82G A111G A120U A145C C150G C169G U176C | 0.00228 |
| C82G A111G A120U A145C C150G C169G U176G | 0.00196 |
| C82G A111G A120U A145C C150G C169G U176A | 0.00278 |
| C82G A111G A145C C169A U176A | 0.0111 |
| C82G A111G A145C C169A U176G | 0.00537 |
| C82G A111G A145C C169A U176C | 0.00787 |
| C82G A111G A120U A145G C150A U176A | 0.00897 |
| C82G A111G A120U A145G C150A U176G | 0.00391 |
| C82G A111G A120U A145G C150A U176C | 0.00919 |
| C82G A111G A120U A145G C169A | 0.00466 |
| C82G A111G A120U A145G C169G | 0.00538 |
| C82G A111G A120U A145G C169U | 0.00538 |
| C82G A111G A120U C169U U176A | 0.00385 |

| Variant | reverse-splicing fitness |
| --- | --- |
| C82G A111G A120U C169U U176G | 0.00158 |
| C82G A111G A120U C169U U176C | 0.0055 |
| C82G A111G A120U A145G C150U C169U U176G | 0.00229 |
| C82G A111G A120U A145G C150U C169U U176A | 0.00467 |
| C82G A111G A120U A145G C150U C169U U176C | 0.00574 |
| C82G A111G A120U A145G C150A | 0.0116 |
| C82G A111G A120U A145G C150G | 0.0102 |
| C82G A111G A120U A145G C150U | 0.0498 |
| C82G A111G A120U | 0.0726 |
| C82G A111G A120G U176C | 0.0217 |
| C82G A111G A120G U176A | 0.0172 |
| C82G A111G A120G U176G | 0.00869 |
| C82G A111G A145C C150A C169G U176A | 0.0228 |
| C82G A111G A145C C150A C169G U176G | 0.00577 |
| C82G A111G A145C C150A C169G U176C | 0.0122 |
| C82G A111G A120U A145U C150G C169A U176A | 0.00415 |
| C82G A111G A120U A145U C150G C169A U176G | 0.00219 |
| C82G A111G A120U A145U C150G C169A U176C | 0.00298 |
| C82G A111G A120U A145U C169U U176C | 0.0031 |
| C82G A111G A120U A145U C169U U176G | 0.00199 |
